Test results from paper doi:10.1101/2021.04.07.438830 (bioRxiv, 2021).

Molecular target: T1, GST-KPC2 (UniProt Q9BSL1 1-405)
T1 sequence: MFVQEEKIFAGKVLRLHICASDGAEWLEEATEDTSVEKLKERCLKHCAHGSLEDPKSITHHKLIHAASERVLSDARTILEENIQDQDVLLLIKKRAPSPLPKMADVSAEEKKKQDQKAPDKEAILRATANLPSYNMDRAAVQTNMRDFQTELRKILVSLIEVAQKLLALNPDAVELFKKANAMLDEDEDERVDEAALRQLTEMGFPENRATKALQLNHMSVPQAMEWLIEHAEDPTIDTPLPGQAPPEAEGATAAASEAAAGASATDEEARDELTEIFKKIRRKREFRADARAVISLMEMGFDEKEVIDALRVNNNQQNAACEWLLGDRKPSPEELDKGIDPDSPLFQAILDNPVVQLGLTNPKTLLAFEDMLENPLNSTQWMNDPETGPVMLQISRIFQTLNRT
Test: pull-down

B1: GST-p65 (1-307) (domain or fragment)
chain: MDELFPLIFPAEPAQASGPYVEIIEQPKQRGMRFRYKCEGRSAGSIPGERSTDTTKTHPTIKINGYTGPGTVRISLVTKDPPHRPHPHELVGKDCRDGFYEAELCPDRCIHSFQNLGIQCVKKRDLEQAISQRIQTNNNPFQVPIEEQRGDYDLNAVRLCFQVTVRDPSGRPLRLPPVLSHPIFDNRAPNTAELKICRVNRNSGSCLGGDEIFLLCDKVQKEDIEVYFTGPGWEARGSFSQADVHRQVAIVFRTPPYADPSLQAPVRVSMQLRRPSDRELSEPMEFQYLPDTDDRHRIEEKRKRTYE
- binding result: binds
